The values that follow are results of earlier work, collected in article PMC4689310.

In general, Kd refers to the free concentration of one partner at which half of the binding sites on the other are occupied at equilibrium, for simple one-to-one binding.

Data set [1] concerns the target H3 peptide 1-18 (Homo sapiens) (UniProt P68431).
Data set [2] concerns the target H4K16ac peptide (Homo sapiens) (UniProt P62805). Nature of the data set: ITC. For orientation: Isothermal titration calorimetry measures the heat released or taken up as one component is titrated into another.
Data set [3] deals with H3 peptide 1-28 (Homo sapiens) (UniProt P68431).
Data set [4] deals with H3K9me3 peptide 1-28 (Homo sapiens) (UniProt P68431).
The target of data set [5] is H3K18ac peptide 1-28 (Homo sapiens) (UniProt P68431).
The target in data set [6] is H3 K4un/K23ac peptide (Homo sapiens) (UniProt P68431).
Data set [7] addresses H3 unmodified K4 peptide (Homo sapiens) (UniProt P68431).
In data set [8] the target is H3K23ac peptide 13-32 (Homo sapiens) (UniProt P68431).
Data set [9] deals with H4K20me1 peptide (Homo sapiens) (UniProt P62805).

DPF3b tandem PHD fingers, sequence (Q92784 259-366): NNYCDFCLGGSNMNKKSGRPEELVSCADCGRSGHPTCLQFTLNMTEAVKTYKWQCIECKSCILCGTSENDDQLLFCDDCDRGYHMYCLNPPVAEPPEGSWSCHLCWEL

Turning to “DPF3b tandem PHD fingers (from UniProt Q92784)”, in data set [1], the dissociation constant Kd is 2300 nM.

For the substance “TAF1 double bromodomain (from UniProt P21675)”, the Kd in data set [2] was 39000 nM.

For TRIM33 PHD-Bromo (from UniProt Q9UPN9), the Kd was 460 nM in data set [3], 200 nM in data set [4] and 210 nM in data set [5].

With TRIM24 PHD-Bromo (from UniProt O15164), the Kd in data set [6] is 96 nM; in data set [7], 2300 nM; in data set [8], 8800 nM.

As for MSL3 chromodomain (from UniProt Q8N5Y2), the Kd in data set [9] is 10000 nM.
